Assay results taken from publication PMC9631991 (Biochemistry, 2022).

B1: ATG4b WT (full-length ATG4b) (enzyme)
chain: MDAATLTYDTLRFAEFEDFPETSEPVWILGRKYSIFTEKDEILSDVASRLWFTYRKNFPAIGGTGPTSDTGWGCMLRCGQMIFAQALVCRHLGRDWRWTQRKRQPDSYFSVLNAFIDRKDSYYSIHQIAQMGVGEGKSIGQWYGPNTVAQVLKKLAVFDTWSSLAVHIAMDNTVVMEEIRRLCRTSVPCAGATAFPADSDRHCNGFPAGAEVTNRPSPWRPLVLLIPLRLGLTDINEAYVETLKHCFMMPQSLGVIGGKPNSAHYFIGYVGEELIYLDPHTTQPAVEPTDGCFIPDESFHCQHPPCRMSIAELDPSIAVGFFCKTEDDFNDWCQQVKKLSLLGGALPMFELVELQPSHLACPDVLNLSLDSSDVERLERFFDSEDEDFEILSL
B2: ATG4b-366 (domain or fragment)
chain: MDAATLTYDTLRFAEFEDFPETSEPVWILGRKYSIFTEKDEILSDVASRLWFTYRKNFPAIGGTGPTSDTGWGCMLRCGQMIFAQALVCRHLGRDWRWTQRKRQPDSYFSVLNAFIDRKDSYYSIHQIAQMGVGEGKSIGQWYGPNTVAQVLKKLAVFDTWSSLAVHIAMDNTVVMEEIRRLCRTSVPCAGATAFPADSDRHCNGFPAGAEVTNRPSPWRPLVLLIPLRLGLTDINEAYVETLKHCFMMPQSLGVIGGKPNSAHYFIGYVGEELIYLDPHTTQPAVEPTDGCFIPDESFHCQHPPCRMSIAELDPSIAVGFFCKTEDDFNDWCQQVKKLSLLGGALPMFELVELQPSHLACPDVLN

Key:
[1] = molecular target: LC3B-115 (residues 1-115) (human, UniProt Q9GZQ8 1-115); experiment: ITC; 25 °C; 20 mM HEPES pH 7.5, 200 mM NaCl, 0.5 mM TCEP; 10~68 uM LC3B proteins in the cell, 10-fold higher concentration of ATG4b in the syringe; single-site binding model; conditions: both partners purified
LC3B-I (residues 1-120) = LC3B-I (residues 1-120) (human, UniProt Q9GZQ8 1-120); experiment: as above; conditions: both partners purified
[2] = molecular target: pro-LC3B (residues 1-125) (human, UniProt Q9GZQ8 1-120); experiment: cell-based or functional assay

Binder	stoichiometry N [1]	Kd (LC3B-I (residues 1-120))	stoichiometry N (LC3B-I (residues 1-120))	fold decrease in KM of cleavage of the FRET substrate CFP-proLC3B-YFP, further fold against ATG4b-382 [2]
B1	0.9 ± 0.2	4.7 µM	0.9 ± 0.2	–
B2	–	–	–	2.6 fold
